Measured values reported in patent publication US20040248211A1, “ICAM-related protein” (priority 1992, published 2004).
Substitutions are numbered along the chain they refer to.

T1: baculovirus-produced soluble human ICAM-R (Homo sapiens, UniProt P32942)
T1 sequence (P32942 30-485 limits assumed): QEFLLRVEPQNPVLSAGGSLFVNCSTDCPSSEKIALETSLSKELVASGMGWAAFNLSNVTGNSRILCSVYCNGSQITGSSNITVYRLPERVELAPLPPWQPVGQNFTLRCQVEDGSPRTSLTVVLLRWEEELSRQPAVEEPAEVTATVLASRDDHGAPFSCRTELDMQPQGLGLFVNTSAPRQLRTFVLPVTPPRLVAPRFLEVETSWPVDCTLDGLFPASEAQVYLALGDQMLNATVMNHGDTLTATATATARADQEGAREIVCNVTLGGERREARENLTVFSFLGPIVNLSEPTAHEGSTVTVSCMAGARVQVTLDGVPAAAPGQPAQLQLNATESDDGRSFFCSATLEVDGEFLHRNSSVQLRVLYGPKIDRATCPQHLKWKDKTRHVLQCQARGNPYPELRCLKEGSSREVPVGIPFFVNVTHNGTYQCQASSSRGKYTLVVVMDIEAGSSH

B1: Tyr479Phe: ICAM-R cytoplasmic domain point mutant (protein, UniProt P32942 30-547, looked up, variant Y479F)
Intercellular adhesion …: QEFLLRVEPQNPVLSAGGSLFVNCSTDCPSSEKIALETSLSKELVASGMGWAAFNLSNVTGNSRILCSVYCNGSQITGSSNITVYRLPERVELAPLPPWQPVGQNFTLRCQVEDGSPRTSLTVVLLRWEEELSRQPAVEEPAEVTATVLASRDDHGAPFSCRTELDMQPQGLGLFVNTSAPRQLRTFVLPVTPPRLVAPRFLEVETSWPVDCTLDGLFPASEAQVYLALGDQMLNATVMNHGDTLTATATATARADQEGAREIVCNVTLGGERREARENLTVFSFLGPIVNLSEPTAHEGSTVTVSCMAGARVQVTLDGVPAAAPGQPAQLQLNATESDDGRSFFCSATLEVDGEFLHRNSSVQLRVLYGPKIDRATCPQHLKWKDKTRHVLQCQARGNPYPELRCLKEGSSREVPVGIPFFVNVTHNGTYQCQASSSRGKYTLVVVMDIEAGSSHFVPVFVAVLLTLGVVTIVLALMFVFREHQRSGSYHVREESTYLPLTSMQPTEAMGEEPSRAE
B2: Ser489Ala: ICAM-R cytoplasmic domain point mutant (protein, UniProt P32942 30-547, looked up, variant S489A)
Intercellular adhesion …: B1 Intercellular adhesion … with F479Y, S489A
B3: Ser503Ala: ICAM-R cytoplasmic domain point mutant (protein, UniProt P32942 30-547, looked up, variant S503A)
Intercellular adhesion …: B1 Intercellular adhesion … with F479Y, S503A
B4: Ser515Ala: ICAM-R cytoplasmic domain point mutant (protein, UniProt P32942 30-547, looked up, variant S515A)
Intercellular adhesion …: B1 Intercellular adhesion … with F479Y, S515A
B5: Leu499Ala: ICAM-R cytoplasmic domain point mutant (protein, UniProt P32942 30-547, looked up, variant L499A)
Intercellular adhesion …: B1 Intercellular adhesion … with F479Y, L499A
B6: Ser496Ala: ICAM-R cytoplasmic domain point mutant (protein, UniProt P32942 30-547, looked up, variant S496A)
Intercellular adhesion …: B1 Intercellular adhesion … with F479Y, S496A
B7: Ser487Ala: ICAM-R cytoplasmic domain point mutant (protein, UniProt P32942 30-547, looked up, variant S487A)
Intercellular adhesion …: B1 Intercellular adhesion … with F479Y, S487A
B8: Tyr490Phe: ICAM-R cytoplasmic domain point mutant (protein, UniProt P32942 30-547, looked up, variant Y490F)
Intercellular adhesion …: B1 Intercellular adhesion … with F479Y, Y490F
B9: Tyr498Phe: ICAM-R cytoplasmic domain point mutant (protein, UniProt P32942 30-547, looked up, variant Y498F)
Intercellular adhesion …: B1 Intercellular adhesion … with F479Y, Y498F
B10: haFL: HA-tagged full length ICAM-R expressed in J77.50.3 cells (protein, UniProt P32942 1-547, looked up)
chain: MATMVPSVLWPRACWTLLVCCLLTPGVQGQEFLLRVEPQNPVLSAGGSLFVNCSTDCPSSEKIALETSLSKELVASGMGWAAFNLSNVTGNSRILCSVYCNGSQITGSSNITVYRLPERVELAPLPPWQPVGQNFTLRCQVEDGSPRTSLTVVLLRWEEELSRQPAVEEPAEVTATVLASRDDHGAPFSCRTELDMQPQGLGLFVNTSAPRQLRTFVLPVTPPRLVAPRFLEVETSWPVDCTLDGLFPASEAQVYLALGDQMLNATVMNHGDTLTATATATARADQEGAREIVCNVTLGGERREARENLTVFSFLGPIVNLSEPTAHEGSTVTVSCMAGARVQVTLDGVPAAAPGQPAQLQLNATESDDGRSFFCSATLEVDGEFLHRNSSVQLRVLYGPKIDRATCPQHLKWKDKTRHVLQCQARGNPYPELRCLKEGSSREVPVGIPFFVNVTHNGTYQCQASSSRGKYTLVVVMDIEAGSSHFVPVFVAVLLTLGVVTIVLALMYVFREHQRSGSYHVREESTYLPLTSMQPTEAMGEEPSRAE
modifications: full-length HA tag
notes: HA-tagged full length ICAM-R expressed in J77.50.3 cells
B11: MuVHVS/MuVK: chimeric ICR-8.1: murine VH with Val2, Ser7 and murine VK, human IgG4/kappa constant regions (antibody, V domains shown)
VH: EVQLQQSGPELVKPGASVKISCKASGYSFTDCIILWVKQSHGKGLEWIGKINPYFGTTTYNLKFKGKATLTVDKSSSTAHMQLNSLTSEDSAVYYCARKEAYPDAMDYWGQGTSVTVSS
VL: DAVMTQTPLSLPVSLGDQASISCRSSQSLVHSNGDTYLHWYLQKPGQSPQLLIYKVSNRFSGVPDRFSGSGSGTDFTLKLSRVEAEDLGVYFCSQSTHVPYTFGGGTKLEIK

Test system: J77.50.3 cells
Assay: IL-2 induction in J77.50.3 lines expressing ICAM-R variants
Format: cell-based, human
Conditions: repeated experiments; Vector 0.52
Procedure: This dose of antibody alone provides minimal signalling for IL-2 release. The OKT3 treatment was removed and replaced with buffer alone or anti-ICAM-R (ICR-1.1) (10 ug/ml in PBS-D) and incubated at 37° C. for at least 2 hours. Monoclonal antibody coating was done in replicates of two or more wells and pooled to provide sufficient quantities of conditioned media for ELISA and/or bioassay. Two hundred fifty thousand Jurkat cells or transfectants thereof, were placed into antibody coated wells or buffer coated negative control wells in 0.1 ml of RPMI complete medium. Following incubation of about 16-24 hrs at 37° C. in a humidified atmosphere containing 5% CO2, the medium was transferred to a fresh 96 well round bottom plate, spun to pellet cells carried over and transferred to a fresh plate. Samples were frozen and stored at −70° C. IL-2 ELISAs were performed using commercially available kits (Biosource Intl. Co., Carmarille, Calif.) by making serial dilutions of the samples.
Experiments were performed using two independently isolated cell lines for each plasmid construct or the vector alone. Stable lines expressing similar levels of ICAM-R variants, as determined by indirect flow cytometry, were chosen for functional studies. Cells were costimulated with plate immobilized monoclonal antibodies ICR-1.1 and OKT3, and IL-2 release from the lines was quantitated by ELISA as previously described in Example 25C. Results were expressed as fold increase of IL-2 released from cells plated onto co-immobilized ICR-1.1 (10 μg/ml) plus OKt3 (1 μg/ml) divided by release from OKT3 ([…]) alone. The full length ICAM-R protein (haFL) gave 3.1 fold induction. The deletions gave the following fold inductions: haCTΔ505 induction was 1.5 fold, haCTΔ493 induction was 1.3 fold, haCTΔ484 was 0.8 fold. Vector control induction was 0.7 fold. […] In addition, removal of the residues 505-518 leads to the most significant reduction in co-stimulatory responsiveness. This implies that residues 505-518 play a relatively larger role in the response as compared to residues 484-505.

Row | Molecule | IL-2 Induction (Fold Stimulation)
1 | B1 | 4.9 Fold
2 | B2 | 2.9 Fold
3 | B3 | 1.0 Fold
4 | B4 | 2.1 Fold
5 | B5 | ˜6 Fold
6 | B6 | ˜6 Fold
7 | B7 | 2.0 Fold
8 | B8 | 1.8 Fold
9 | B9 | 1.6 Fold
10 | B10 | 5.4 Fold

Same assay, conditions: vector control 0.7 fold

Row | Molecule | fold increase of IL-2 released (ICR-1.1 plus OKT3 divided by OKT3 alone)
11 | B5 | Neither ICAM-R mutation affected IL-2 secretion
12 | B6 | Neither ICAM-R mutation affected IL-2 secretion
13 | B10 | 3.1 fold

Test system: J77.50.3 cell lines
Assay: Cell spreading on ICR-1.1 coated plastic
Format: cell-based, human
Conditions: 20 minutes at 37° C.
Procedure: To ascertain additional functional consequences of ICAM-R carboxyl terminal deletions, the Jurkat cell lines expressing the. ICAM-R variants described above were tested for the ability to adhere and spread on antibody coated plastic or to undergo antibody-mediated aggregation. Bacterial petri plates were coated with 50 μl drops of ICR-1.1 or w6/32 (10 μg/ml) (anti-MHC class I isotype matched control monoclonal antibody) in PBS for 120 minutes at 37° C. The plastic was rinsed twice prior to spotting 50 μl drops of J77.50.3 cell lines. Duplicate cell lines expressing these proteins at equivalent levels were tested. After 20 minutes at 37° C. the plate was flooded with 2% glutaraldehyde in PBS and incubated for 30 minutes to fix adherent cells. Fixed cells were rinsed twice with PBS and scored visually for the ability to flatten and spread. […] Weyrich et al., J. Clin. Invest., 95: 2297-2303 (1995) recently described the effect of a ICR-1.1 coated plastic surface on normal monocytes from peripheral blood. After two hours, these cells flattened down and spread with a similar overall morphology to that seen with the haFL expressing J77.50.3 cell line.

Row | Molecule | spreading on ICR-1.1 coated plastic
14 | B1 | spread onto the ICR-1.1 coated plastic surface
15 | B5 | Neither ICAM-R mutation affected
16 | B6 | Neither ICAM-R mutation affected
17 | B8 | incapable of flattening down onto the ICR-1.1 coated surface
18 | B9 | spread onto the ICR-1.1 coated plastic surface
19 | B10 | spread onto the ICR-1.1 coated plastic surface

Target: T1, baculovirus-produced soluble human ICAM-R
Assay: ELISA binding of recombinant ICR-8.1 antibodies
Conditions: humanized/chimeric ICR-8.1 chain combinations, human IgG4/kappa

Row | binding to ICAM-R (ELISA), recombinant ICR-8.1 antibodies | Molecule
20 | equivalence in binding to ICAM-R | B11

Test system: J77.50.3 cell lines
Assay: ICR-1.1 induced aggregation of J77.50.3 lines
Format: cell-based, human
Conditions: ICR-1.1 10 μg/ml; 1 and 24 hours
Procedure: One of these monoclonal antibodies (ICR-1.1) was used to induce aggregation of the J77.50.3 cell lines expressing either full length ICAM-R (haFL) or carboxy terminal variants of ICAM-R. ICR-1.1 was added to 200,000 cells at 10 μg/ml in 96 well plates and incubated 37° C. At 1 and 24 hours after incubation the wells were visually screened for aggregates.

Row | Molecule | ICR-1.1 induced aggregation
21 | B1 | aggregation competent
22 | B5 | Neither ICAM-R mutation affected
23 | B6 | Neither ICAM-R mutation affected
24 | B8 | incapable of forming inducible aggregates
25 | B9 | aggregation competent
26 | B10 | aggregation competent

Same assay, conditions: repeated experiments; Vector 17

Row | Molecule | Percent Aggregation [%]
27 | B2 | 25
28 | B3 | 64
29 | B4 | 15
30 | B5 | 60
31 | B6 | 60
32 | B7 | 61
33 | B10 | 55
